Results reported in US6406872.

B1: UNC-49C GABA receptor subunit (receptor)
chain: QDEDSHINTQLLSSVLDRLTNRTTYDKRLRPRYGEKPVDVGITIHVSSISAVSEVDMDFTLDFYMRQTWQDPRLAFGSLDLGLSKEIDSLTVGVDYLDRLWKPDTFFPNEKKSFFHLATTHNSFLRIEGDGTVYTSQRLTVTATCPMDLKLFPMDSQHCKLEIESYAYSTAEIEYKWCTSKEPNCSTAVKADANIELSSYKFTKICQKRTLASTSSGTYSRLRVSFIFDRDSGFYFLQIFFPASLVVVLSWISFWINRDSAPSRTLIGTMTVLTETHLMTGTNRRLPPVAYVKAVDVFLGFCYLLVILALIEYACVAYSKKKNEDRRRREKKTEHKPAPPTPDILHDVRLAECTCNAAPTSIIAVIKQSNRFCVSHSHIDIVSRAAFPLVFILFNTLFWLILLYKSKRLPYISEHEGDRCDAPDLH
B2: UNC-49B GABA receptor subunit (UNC-49B.1 isoform) (receptor)
chain: QDEDSHINTQLLSSVLDRLTNRTTYDKRLRPRYGEKPVDVGITIHVSSISAVSEVDMDFTLDFYMRQTWQDPRLAFGSLDLGLSKEIDSLTVGVDYLDRLWKPDTFFPNEKKSFFHLATTHNSFLRIEGDGTVYTSQRLTVTATCPMDLKLFPMDSQHCKLEIESYGYETKDIDYYWGKKRTDLEITAVKFDTFQLPQFQPTLYFVNTTKAETSSGKYVRLALEVILVRNMGFYTMNIVIPSILIVTISWVSFWLNREASPARVGLGVTTVLTMTTLITTTNNSMPKVSYVKGLDVFLNFCFVMVFASLLEYAIVSYMNKRLVLRREKRRKAAEQQQRNEMPMFNASPKAANNNADLYFAGHNSSMNPLMEIPENCDCRTIPMMQHPRLVTDGAHTLWPAPFARPKKASKTCCQRWTPAKIDKLSRYGFPLSFSIFNIVYWLYMKYLSLNSSDKIQENDKWQQIH

Assays:
[1] = target: B2; test: cell-based or functional assay
[2] = target: the molecule itself; test: cell-based or functional assay

| Binder | EC50 (µM) of GABA, two-electrode voltage clamp, Xenopus oocytes co-injected with UNC-49B and UNC-49C RNA [1] | EC50 (µM) of GABA, two-electrode voltage clamp, Xenopus oocytes injected with UNC-49B.1 mRNA alone [2] |
| --- | --- | --- |
| B1 | 108 µM | – |
| B2 | – | 43.7 µM |
